Holding throughout (assay): native MS
Test [1] addresses haptoglobin Hp 2-1 isoform HL(L*H)LH (human) (UniProt P00738).
In test [2] the target is haptoglobin Hp 1-1, tetramer H-L-L-H (human) (UniProt P00738).
Test [3] addresses haptoglobin Hp 2-1 isoform HL(L*H)LH (human) (UniProt P00738). The source holds these as a separate data set.
The target of test [4] is haptoglobin Hp 2-1 isoform HL(L*H)2LH (human) (UniProt P00738).
Test [5] concerns the target haptoglobin Hp 1-1, tetramer H-L-L-H (human) (UniProt P00738). The source holds these as a separate data set.

Like-named read-outs stand apart in the source and are kept apart here.

Consider “semi-hemoglobin dimer α*β* of hemoglobin (Hb) (from UniProt P69905 1-142; P68871 1-147) (complex)”, for which the stoichiometry N (semi-Hb dimers per HL(L*H)LH) in test [1] is 3. Besides, in test [2], the stoichiometry N (α*β* dimers per HLLH) is 2. In test [3], this substance returned a stoichiometry N (semi-Hb dimers per HL(L*H)LH) of 3. In test [4], this substance came in with a stoichiometry N (dimeric Hb subunits per HL(L*H)2LH) of 4. Also, in test [5], the stoichiometry N (Hb dimers per Hp molecule) came out at 2, the stoichiometry N (semi-Hb dimers per HLLH) came out at 2 and the stoichiometry N (α*β* dimers per HLLH) is 2.

Source of the values: publication PMC8514162.
